Reference: patent US20250043012A1

Biological target: human EGFR (protein used in SPR, ELISA and BLI) (human) (UniProt P00533)
Assay: SPR

B1: ER-2b (antibody, part only; not given: Constant region, common trastuzumab light chain, part only)
heavy chain, part: EVQLVESGGGLVQPGGSLRLSCAASGFNIYYAAMHWVRQAPGKGLEWVAFISPYYSYTSYADSVKGRFTISADTSKNTAYLQMNSLRAEDTAVYYCARYFHSSWYESSSPRAYYPGMDYWGQGTLVTVSS
  koff: 5e-05 s⁻¹
  kon: 280000 M⁻¹ s⁻¹
